Assay: soluble on expression in E. coli; label from the status in PepcDB or PDB records
For “SLGSVLVDLQIATENIEGLPTEEQIVQWATGAVQPEGNEVEMTVRIVDEAESHELNLTYRGKDRPTNVLSFPFECPDEVELPLLGDLVICRQVVEREASEQEKPLMAHWAHMVVHGSLHLLGYDHIEDDEAEEMESLETQIMQGLGFDDPYLAEK”, the “soluble on expression in E. coli” value was “soluble”.
For “MGSDKIHHHHHHMYREFYGLREKPFSKTPDPRYLFLSRGHREALARLQYAVEERELALLTGDIGCGKTTISRALMDAMGEACRFCFIFNPRLSPLEFLRVIARSLGIDNPAGAKDELLKQLTETLYLMHAEGRCPVIVVDEAQLIPDRDVFDEIRLLTNYQLDDQNLMSVVLMGQPELRQILADPVHEPLRQRIALHYHLQPLSLDETLEYIDFRLEVAGGTPGLFSPDAVQRIHELSGGVPRKINILATNALLVGYGRDAAWIDASLVEELRDEANLY”, the “soluble on expression in E. coli” value was “not soluble”.
For “MPKISSRDGGRPAQRTVNPIIVTRRGKIARLESGLTPQEAQIEDLVFLRKVLNRADIPYLLIRNHKNRPVLAINIELRAGLERALAAACATEPMYAKTIDEPGLSPVLVATDGLSQLVDPRVVRLYRRRIAPGGFRYGPAFGVELQFWVYEETVIRCPVENSLSRKVLPRNEITPTNVKLYGYKWPTLDGMFAPHASDVVFDIDMVFSWVDGSDPEFRARRMAQMSQYVVGEGDDAEARIRQIDELKYALRSVNMFAPWIRRIFIATDSTPPPWLAEHPKITIVRAEDHFSDRSALPTYNSHAVESQLHHIPGLSEHFLYSNDDMFFGRPLKASMFFSPGGVTRFIEAKTRIGLGANNPARSGFENAARVNRQLLFDRFGQVITRHLEHTAVPLRKSVLIEMEREFPEEFARTAASPFRSDTDISVTNSFYHYYALMTGRAVPQEKAKVLYVDTTSYAGLRLLPKLRKHRGYDFFCLNDGSFPEVPAAQRAERVVSFLERYFPIPAPWEKIAADVSRRDFAVPRTSAPSEGA”, the “soluble on expression in E. coli” value was “soluble”.
For “MGSDKIHHHHHHMVEMNFKVDAFEGPLDLLLHLIGQLEVDIYDIPMAEITDQYMEFVHTMQEMELDVASEYLVMAATLLAIKSKMLLPKQELEIDYDTLEEEEDPRDALVEKLMEYKRFKEAAKELKEKEAERSFYFSKPPMDLAEYDDGTKVAELDVSLNDMLSAFNKMLRRKKLNKPLHTRITTQEISIDQRMDSVLEKLNLQVNHRLRFDELFEEQTKEQLVVTFLALLELMKRKLVEVEQAESFADLYVQGKGEEIS”, the “soluble on expression in E. coli” value was “not soluble”.
With “MGSDKIHHHHHHEEMEKGFDPKRYARELWFKLQDMMNEGLGYDAVEVLNTLDENPELAHQKFAKVVGVSNYRYYIIQGVGEIVEIKDDGILVKVRENRKVPDLFLSNHIFGNGIVNATGIAKMEDFDRIIDFNLTATELNKIVKEEVVNSFLKQLSKGAGSVGSLVRFIAVFTLLKDEEIKYPIEAIPLYLEIQGGF” the “soluble on expression in E. coli” value was “soluble”.
With “STSSDPQSHNVFVYGSILEPAVAAVILDRTADTVPAVLHGYHRYKLKGLPYPCIVSSDSGKVNGKVITGVSDAELNNFDVIEGNDYERVTVEVVRMDNSEKVKVETYVWVNKDDPRMYGEWDFEEWRVVHAEKFVETFRKMLEWNKNPNGKSMEEAVGSLLSSGD” the “soluble on expression in E. coli” value was “soluble”.
For “MTRGRVIQVMGPVVDVKFENGHLPAIYNALKIQHKARNENEVDIDLTLEVALHLGDDTVRTIAMASTDGLIRGMEVIDTGAPISVPVGQVTLGRVFNVLGEPIDLEGDIPADARRDPIHRPAPKFEELATEVEILETGIKVVDLLAPYIKGGKIGLFGGAGVGKTVLIQELIHNIAQEHGGISVFAGVGERTREGNDLYHEMKDSGVISKTAMVFGQMNEPPGARMRVALTGLTMAEYFRDEQGQDGLLFIDNIFRFTQAGSEVSALLGRMPSAIGYQPTLATEMGQLQERITSTAKGSITSIQAIYVPADDYTDPAPATTFSHLDATTNLERKLAEMGIYPAVDPLVSTSRALAPEIVGEEHYQVARKVQQTLERYKELQDIIAILGMDELSDEDKLVVHRARRIQFFLSQNFHVAEQFTGQPGSYVPVKETVRGFKEILEGKYDHLPEDRFRLVGRIEEVVEKAKAMGVEV”, the “soluble on expression in E. coli” value was “soluble”.
For “MSLSTPIQAEPPNLSLIRKEIKNYYDSGLYYHELERTIKLAQEYIHQQYLINKNNKHPQKLAIVLDIDETSLSNYDKMVKRDFTGSKEQIHKEILAANSPAIKPMLTLYKNALKQGIKVFFVTGRQESERDATRANLIKAGYTKWAGLYLRPNGYSSPSIIPFKSKAREMIAKKGYTIIASIGDQCSDIQGGYTKKGFKLPNPFYYLPEGHHHHHH”, the “soluble on expression in E. coli” value was “soluble”.
With “MAHHHHHHMPPPLRSKAESVQREEVCQMVEPKRSMSVRDTLYGQLEFPPVIRILTNSPVVQRLRDLKQLGNSFYVYPGATHSRFEHSLGVCYLGMELYRSIVDGHREEHRDFGVPEIANLTREAAQKDMHCIGIAGLCHDLGHGPLSHLFESFVRSSARPEEVQLRKWSHEQASIMLLRKMWLENETELAELGFTESDLRYVELLINGLAPGKAWPDNVGRPKWARFTTEIIANKRSGLDVDKIDYIQRDSVACLGTPTFVSMSRLFQGARVVVGDNDETSIGYPDKLDGVIEEIFLARSHLHRIVYQHRVTKVIDLMTLDALRAAGDVFEVSNGKDGVMPLRSCVLHPDFYVHASDWIVLAILHGSNRTMAESWGSGASAEHRREKLAEACRILQRIHSRHLYTTIGSYRHSEQTLINAGRLNSVEGSSQEVKREVMIHELLSDIEVTNLDLSVKLREWSRQHNGMTAMEILQAEITQTAGDMDKKHNPVSATYFFNPRQSTHCRVEPHFSCNVTTTLFVKTGPVSSLVVVCRMPLTPQEKESLRVSFTSVADRLGKTDASSFSCTPMSQRGRAAESSQQAASVARDESAATPNHSLAGGERLTSSVSGGYPAAKRLRLDLDTQRSRRDDFDVDQSSEGVLQNDATTSSLELVTAAGYGQVGEKGQDDDDGEETDILSFS” the “soluble on expression in E. coli” value was “not soluble”.
For “MDILLVDGYNMIGAWPQLKDLKANSFEEARDVLIQKMAEYQSYTGNRVIVVFDAHLVKGLEKKQTNHRVEVIFTKENETADERIEKLAQALNNIATQIHVATSDYTEQWAIFGQGALRKSARELLREVETIERRIERRVRKITSEKPAGKIALSEEVLKTFEKWRRGDLDLEHHHHHH”, the “soluble on expression in E. coli” value was “not soluble”.
In the case of “MGSDKIHHHHHHMQTPSYFTPASFDFLTKLEHNNNREWFKANQAEYELQVRTPALHFIEAMSGSVVDLSPRLTAVAKKVGGSLMRPQRDSRFSKDKTPYKLNVGIQFRHFQAKDVHAPGLYLHLANDGCFIAAGIWHPESKALNAIRHCIDENPKGYQKAIANLTAAGFELSGDSLSRPPRGFDKSHPLIDELKRKDFIAIKDISLEQVCQLDLVDFCAQQYQYTSALMYYLCFALDLDF”, the “soluble on expression in E. coli” value was “not soluble”.
With “MEDYLVKALCYKGSIRAYAISATETVSEAQRRHDTWSSSTAALGRTLIGALLLGATLKGDDKLTVKVQGNGPAGAIIVDSNGRGETKGYIKNPHVSLKLNATGKIDVRGAVGNEGIFTVIKDLGLKETFSGQTPIVSGEIGEDFTYFMAVSEQVPSAIGLGVLVDTDESVKAAGGFMIQVMPGADESTIDFIEQRLAEVPPISQLLENGETPEQVLYRLLGEDEVEILEKMPVQFKCDCSKEKFATALIAVGIDELNAMIDEDHGAEAVCQFCNNKYHYSEEELIELRDEAIRNTKQK” the “soluble on expression in E. coli” value was “not soluble”.
For “MSKGMFSASQSGFSTIEVYDLGPLNKIDLSIAKAGLEDTGGTVTFSVEQSLLDSLNNADGTSYQLLPPECYTIENATYSVSPGGDRRVTGGSLVYDPHKIYNLCGFDELKYVLPLRVSSTGTPMNSDRTATLYGFIVKEAIVRLASTGGDFVVEGGTTTSPMNLDTEISFENEWDLTTSFATKGADYVDNYNSANSTYYIPLPSDFYTLPDVTIAKGKTTGGSAISLLGETLPPGNYLLPVSLGGLSGQGDASINIDKETVANYFVIKQGGPINRDHWTVTANTEEKTGEVSAAYPHNGQTISLIDGEINTFWHSKWQGGEVAPPYEIILDMGKENSVSQLGLIARQNALTSMNLEIYAGDDGETWNLIGKYFFDGSIKTEQMVPVKACDARWIRIYIPTLGSGSSVGHLAEIYVYGTDKLEHHHHHH”, the “soluble on expression in E. coli” value was “soluble”.
For “MSLLLFEQPVDLEKNNEDDTNIKPFAISRHFLLKLLLCGIILIELLLYSKCPKPIDNGPRTIANRSNTYFNGTHDFKTLTILISIDGFHPRLIDAKYTPFLYNLHNLRSPYDMNITTAPYMIPSFPTQTFPNHWSMVTGKYPIEHGIVSNIFWDNFTSSEFRPNNLDARIWSNTADPIWQLLQTESQGEYKVATHMWPGSEVVYEDHGDVPRERMPFYFGKFNQWEKLQDKLAQIFRYIDMPQLKDRPELVISYIPNVDSYGHSFGYDLRDKRLQKLIGEVDGFFLDLIEGLQKRNLLKISNVMIVSDHGMSNVNANDGEHVVVWERVFPADAMSAFISHLYNEGPMMMVCLKNPRDKQWICDLIEAQLEKAYGDEISRKFHVILKEDFDPSWKYFQYDNRKHRYDDRVGDIWILADEYYAIVKEMGDVPIGIMGTHGYNFNNCSDMASIFIGMGPMFNNEVVPPFENIEVYNMLIKASALLGEEKTKKEKSLLQEGHHHHHH”, the “soluble on expression in E. coli” value was “not soluble”.
In the case of “MQFSKMHGLGNDFVVVDGVTQNVFFTPETIRRLANRHCGIGFDQLLIVEAPYDPELDFHYRIFNADGSEVSQCGNGARCFARFVTLKGLTNKKDISVSTQKGNMVLTVKDDNQIRVNMGEPIWEPAKIPFTANKFEKNYILRTDIQTVLCGAVSMGNPHCVVQVDDIQTANVEQLGPLLESHERFPERVNAGFMQIINKEHIKLRVYERGAGETQASGSGACAAVAVGIMQGLLNNNVQVDLPGGSLMIEWNGVGHPLYMTGEATHIYDGFITL”, the “soluble on expression in E. coli” value was “soluble”.
With “MMSETGFIDVKIFPQRLLKPETAEKLLNRIYELEGIVRVLVHGPSIPDRVYYGPARGTEVNHSDRRKITVRGEEFELRVKVGEIIVGMLPETLEEKMETIEEILDEVLPCSYKVFIGAFTKKDITISDYLKYGLKFEEKIDPRVIGMVDPSSRMKDTVVNIKLEHHHHHH” the “soluble on expression in E. coli” value was “soluble”.
In the case of “MGSDKIHHHHHHMRIDIDAFNVLQVLVEEGSFAKASERLHKAQSAVSYQVKKLEQHLGVTLFNRDHYRAELTPEGKVILAEGQRLLQHLANIEHLASRFSQGWEPKLELVIDGALPMEPIMTALKRMSEHNIPTKVQLNMEFLGGVQHRFERDQADLMLVKDYRTGPSYHPKPLPTITSVLVASSQHPLSLLKEISLPELQQHVELTIEDSSPGKRDRDEMQFGGDKVFYLSGFIMKKNALLKGLGFGWMPDFLIAEELHQRQLIEVDFIGGNRFSFTPQLVSTLERPLGRAGQLFTELILEEFAQYQLQHQSGLSGAGLG”, the “soluble on expression in E. coli” value was “not soluble”.
With “MAVAYSIGIDSGSTATKGILLADGVITRRFLVPTPFRPATAITEAWETLREGLETTPFLTLTGYGRQLVDFADKQVTEISCHGLGARFLAPATRAVIDIGGQDSKVIQLDDDGNLCDFLMNDKCAAGTGRFLEVISRTLGTSVEQLDSITENVTPHAITSMCTVFAESEAISLRSAGVAPEAILAGVINAMARRSANFIARLSCEAPILFTGGVSHCQKFARMLESHLRMPVNTHPDAQFAGAIGAAVIGQRVRTRR” the “soluble on expression in E. coli” value was “soluble”.
For “MKVTAMDIYKLLPKTNCGKCGEASCMAFAAKLSQKEAELSACPQLKGADFEKLANMLAPAVREIKIGTGDRAVTIGGDEVLYRYELTYYNPTAVAVDLSDDMDDSAFDQKLVKIKNLEFERTGEILKLNAVALRNKSGDAEKFKKAAEKLKDSEIPVILCSFDPKAMDAALDVIGSKRPLIYAATENNIDEMSELALKHNCPISLFVPNDLEKMKQLSRKLRESGVKDIVLDPGTYIGEAIGDTMDNFIMIRRLAVEEKDDDFRFPILAVPAVCWINPEEDEILTKMKEATTAAALMNRYADVMILHGVDIWEMMPVLTLRQSLYTDPRKPQSVEAKIYEFGTVDENSPVIMTTNFALTYYTVAGDLKSGKVNCYLLVLDTNGKAVDVAVAGGQFNGKAAAELMKETGIEKLVNHKKLIIPGLAASVSGDIEDQSGWEVIVGTRDSSEVPAFLAKIW”, the “soluble on expression in E. coli” value was “not soluble”.
